The target in test [1] is succinyl-Ala-Ala-Val-Ala-p-nitroanilide (Artificial Sequence).
In test [2] the target is succinyl-Ala-Ala-Pro-Ala-p-nitroanilide (Artificial Sequence).
For test [3], the target named is succinyl-Ala-Ala-Pro-Leu-p-nitroanilide.
In test [4] the target is succinyl-Ala-Ala-Pro-Phe-p-nitroanilide (Artificial Sequence).

The substance subtilisin YaB mutant 151L (enzyme) yielded a Specific activity (unit/mg protein), elastin-orcein (unit/mg protein) with elastin-orcein of 161. The substance further showed a Specific activity (unit/mg protein), casein (unit/mg protein) in the test with casein of 717.
As to subtilisin YaB mutant G124A (enzyme), in the test with elastin-orcein, the Specific activity (unit/mg protein), elastin-orcein (unit/mg protein) was 647. Moreover, the Specific activity (unit/mg protein), myofibril (unit/mg protein) with myofibrillar protein is 1020. The substance also gave a Specific activity (unit/mg protein), casein (unit/mg protein) with casein of 3800.
For the substance “subtilisin YaB mutant G124A (enzyme; unit assumed)”, the kcat /Km in test [1] is 122 mM⁻¹ s⁻¹; in test [2], 17 mM⁻¹ s⁻¹.
The substance subtilisin YaB mutant G124I (enzyme) yielded a Specific activity (unit/mg protein), elastin-orcein (unit/mg protein) with elastin-orcein of 64. The substance also registered a Specific activity (unit/mg protein), myofibril (unit/mg protein) with myofibrillar protein of 717. The substance further had a Specific activity (unit/mg protein), casein (unit/mg protein) with casein of 602.
In the test with elastin-orcein, subtilisin YaB mutant G124L (enzyme) yielded a Specific activity (unit/mg protein), elastin-orcein (unit/mg protein) of 157. The substance also gave a Specific activity (unit/mg protein), myofibril (unit/mg protein) in the test with myofibrillar protein of 366. The Specific activity (unit/mg protein), casein (unit/mg protein) with casein was 1250.
Consider subtilisin YaB mutant G124V (enzyme), for which, in the test with elastin-orcein, the Specific activity (unit/mg protein), elastin-orcein (unit/mg protein) was found to be 425. The substance further yielded a Specific activity (unit/mg protein), myofibril (unit/mg protein) with myofibrillar protein of 605. The substance further came in with a Specific activity (unit/mg protein), casein (unit/mg protein) in the test with casein of 1400.
Take “subtilisin YaB mutant G124V (enzyme; unit assumed)”: the kcat /Km came to 6.48 mM⁻¹ s⁻¹ in test [1] and 0.416 mM⁻¹ s⁻¹ in test [2].
On to subtilisin YaB mutant G151A (enzyme), for which the Specific activity (unit/mg protein), elastin-orcein (unit/mg protein) in the test with elastin-orcein came out at 355. For the same substance, the Specific activity (unit/mg protein), myofibril (unit/mg protein) with myofibrillar protein stood at 750. The substance further showed a Specific activity (unit/mg protein), casein (unit/mg protein) with casein of 1780.
As to “subtilisin YaB mutant G151A (enzyme; unit assumed)”, the kcat /Km in test [3] was found to be 5.59 mM⁻¹ s⁻¹; in test [1], 56.1 mM⁻¹ s⁻¹; in test [2] it was 2.69 mM⁻¹ s⁻¹.
Substance subtilisin YaB mutant G151I (enzyme) displayed a Specific activity (unit/mg protein), elastin-orcein (unit/mg protein) with elastin-orcein of 138. This substance also returned a Specific activity (unit/mg protein), casein (unit/mg protein) with casein of 511.
The corresponding values for subtilisin YaB mutant G151V (enzyme) are 148 and 618.
subtilisin YaB mutant G159A (enzyme): the Specific activity (unit/mg protein), elastin-orcein (unit/mg protein) in the test with elastin-orcein was 2080. Further, the Specific activity (unit/mg protein), myofibril (unit/mg protein) in the test with myofibrillar protein turned out to be 2040. This substance yielded a Specific activity (unit/mg protein), casein (unit/mg protein) in the test with casein of 7780.
As to “subtilisin YaB mutant G159A (enzyme; unit assumed)”, the kcat /Km was determined as 3.86 mM⁻¹ s⁻¹ in test [3], 15.7 mM⁻¹ s⁻¹ in test [1], 1.04 mM⁻¹ s⁻¹ in test [2] and 40.5 mM⁻¹ s⁻¹ in test [4].
Consider subtilisin YaB mutant G159F (enzyme), for which the Specific activity (unit/mg protein), elastin-orcein (unit/mg protein) in the test with elastin-orcein turned out to be 12. The substance also yielded a Specific activity (unit/mg protein), casein (unit/mg protein) with casein of 135.
In the test with elastin-orcein, subtilisin YaB mutant G159I (enzyme) returned a Specific activity (unit/mg protein), elastin-orcein (unit/mg protein) of 142. In the test with casein, the Specific activity (unit/mg protein), casein (unit/mg protein) is 872.
On the same counts, the results for subtilisin YaB mutant G159L (enzyme) are 9 and 112.
In turn, subtilisin YaB mutant G159S (enzyme) had a Specific activity (unit/mg protein), elastin-orcein (unit/mg protein) in the test with elastin-orcein of 1510. The Specific activity (unit/mg protein), myofibril (unit/mg protein) in the test with myofibrillar protein came to 2330. Further, the Specific activity (unit/mg protein), casein (unit/mg protein) with casein was 8940.
Regarding “subtilisin YaB mutant G159S (enzyme; unit assumed)”, the kcat /Km in test [3] was 4.13 mM⁻¹ s⁻¹; in test [1], 19.8 mM⁻¹ s⁻¹; in test [2], 1.6 mM⁻¹ s⁻¹; in test [4] it was 35.7 mM⁻¹ s⁻¹.
In the test with elastin-orcein, subtilisin YaB mutant G159V (enzyme) had a Specific activity (unit/mg protein), elastin-orcein (unit/mg protein) of 37. In the test with casein, the Specific activity (unit/mg protein), casein (unit/mg protein) was 431.
subtilisin YaB mutant G159W (enzyme): in the test with elastin-orcein, the Specific activity (unit/mg protein), elastin-orcein (unit/mg protein) was 324. The Specific activity (unit/mg protein), myofibril (unit/mg protein) in the test with myofibrillar protein was 672. This substance also yielded a Specific activity (unit/mg protein), casein (unit/mg protein) with casein of 1630.
Substance subtilisin YaB mutant G159Y (enzyme) registered a Specific activity (unit/mg protein), elastin-orcein (unit/mg protein) in the test with elastin-orcein of 203. Further, the Specific activity (unit/mg protein), casein (unit/mg protein) in the test with casein amounted to 1010.
As for wild type subtilisin YaB (enzyme), the Specific activity (unit/mg protein), elastin-orcein (unit/mg protein) with elastin-orcein amounted to 541. This substance also gave a Specific activity (unit/mg protein), myofibril (unit/mg protein) in the test with myofibrillar protein of 5160. Besides, the Specific activity (unit/mg protein), casein (unit/mg protein) with casein was found to be 8250.
Turning to “wild type subtilisin YaB (enzyme; unit assumed)”, the kcat /Km in test [3] was determined as 5.25 mM⁻¹ s⁻¹; in test [1], 14.2 mM⁻¹ s⁻¹; in test [2], 1.67 mM⁻¹ s⁻¹; in test [4] it was 4.6 mM⁻¹ s⁻¹.

The record behind these values is patent US5972683.
